Columns and labels:
[1] = biological target: T1, human ULBP-1-Fc (R&D systems) (human, UniProt Q9BZM6 26-216, limits assumed); test: SPR, antibody injected over immobilized ULBP-1-Fc
T1 construct: Bought; not shown: Fc of the bought fusion protein
T1 sequence (looked up): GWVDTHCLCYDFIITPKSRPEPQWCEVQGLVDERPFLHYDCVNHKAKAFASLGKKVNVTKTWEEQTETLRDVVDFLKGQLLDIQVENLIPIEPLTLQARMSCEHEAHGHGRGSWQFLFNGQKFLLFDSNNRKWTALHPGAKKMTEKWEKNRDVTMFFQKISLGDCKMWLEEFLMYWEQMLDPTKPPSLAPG
Description: (§1) For cross-binding study, the human ULBP-1-Fc (R&D systems*), MICB-Fc (*), ULBP-2-Fc (*) and ULBP-3-Fc (*) recombinant proteins were covalently immobilized respectively on the flow cell one to four of a CM5 sensorchip. Anti-MICA antibodies (at a constant concentration of 10 μg/ml) were injected for 2 minutes at a flow rate of 10 μl/min onto the four flow cells in parallel. After each cycle, Sensorchip was regenerated by a five second injection of appropriate regeneration buffer.

[2] = biological target: T2, human ULBP-2-Fc (R&D systems) (human, UniProt Q9BZM5 26-217, limits assumed); test: SPR, antibody injected over immobilized ULBP-2-Fc
T2 construct: Bought; not shown: Fc of the bought fusion protein
T2 sequence (looked up): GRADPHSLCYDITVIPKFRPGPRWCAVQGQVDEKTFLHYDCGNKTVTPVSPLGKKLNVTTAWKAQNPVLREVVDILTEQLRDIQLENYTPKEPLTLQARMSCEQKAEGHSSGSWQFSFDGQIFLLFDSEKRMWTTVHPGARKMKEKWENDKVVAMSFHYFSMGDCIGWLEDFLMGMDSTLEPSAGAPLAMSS
Description: as §1

[3] = biological target: T3, MICA*001 expressed at the cell surface (human, UniProt Q29983 24-297); test: cell-based or functional assay
T3 sequence: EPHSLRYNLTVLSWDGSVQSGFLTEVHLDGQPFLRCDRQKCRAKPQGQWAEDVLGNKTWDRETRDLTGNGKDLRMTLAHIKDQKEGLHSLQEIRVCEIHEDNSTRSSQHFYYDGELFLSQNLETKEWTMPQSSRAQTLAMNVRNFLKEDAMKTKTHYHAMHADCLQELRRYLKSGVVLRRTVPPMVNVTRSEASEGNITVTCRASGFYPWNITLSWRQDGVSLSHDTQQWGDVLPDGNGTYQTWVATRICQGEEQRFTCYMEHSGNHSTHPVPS

[4] = biological target: T4, human ULBP-3-Fc (R&D systems) (human, UniProt Q9BZM4 30-217, limits assumed); test: SPR, antibody injected over immobilized ULBP-3-Fc
T4 construct: Bought; not shown: Fc of the bought fusion protein
T4 sequence (looked up): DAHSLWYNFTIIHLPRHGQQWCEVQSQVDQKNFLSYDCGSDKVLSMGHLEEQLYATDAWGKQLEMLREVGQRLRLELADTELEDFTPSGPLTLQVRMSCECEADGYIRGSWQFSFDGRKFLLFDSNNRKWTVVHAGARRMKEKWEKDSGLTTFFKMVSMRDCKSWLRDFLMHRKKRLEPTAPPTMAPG
Description: as §1

[5] = biological target: T3, MICA*001 expressed at the cell surface; test: flow cytometry on C1R transfectant cells, 4-parameter logistic fit
Description: (§2) The binding of antibodies obtained from the first, second and third immunization series (including CHG1-M-MIA-19E9, CHG1-M-MIA-9C10, CHG1-M-MIA-6E4, CHG1-M-MIA-20C6, CHG1-M-MIA-16A8, CHG1-M-MIA-12A10, CHG1-M-MIA-10A7, CHG1-M-MIA-18E8, CHG1-M-MIA-10F3, CHG1-M-MIA-15F9 and CHG1-M-MIA-14B4) were tested for binding to MICA-expressing CR1 transfectant cells C1R-MICA*001, C1R-MICA*004, C1R-MICA*007 and C1R-MICA*008 (Pr. A. Steinle, Eberhard-Karls University Tuebingen, Germany) described in Salih et al. (2003) Blood 102(4): […]. Binding was analyzed by flow cytometry.
(§3) Cells were harvested and stained in PBS 1×/BSA 0.2%/EDTA 2 mM buffer during 30 minutes at 4° C. using a dose-range of the anti-MICA mAbs. After two washes in staining buffer, cells were stained for 30 min at 4° C. with mouse anti-human IgG1-PE monoclonal antibodies (1/11). After two washes, stainings were acquired on a BD FACS Canto II and analyzed using the FlowJo software.
(§4) Antibodies CHG1-M-MIA-19E9, CHG1-M-MIA-9C10, CHG1-M-MIA-6E4, CHG1-M-MIA-20C6, CHG1-M-MIA-12A10, CHG1-M-MIA-10A7, CHG1-M-MIA-18E8, CHG1-M-MIA-10F3, and CHG1-M-MIA-15F9 bound to each of the C1R-MICA*001, C1R-MICA*004, C1R-MICA*007 and C1R-MICA*008 cells (see FIG. 1A for antibodies CHG1-M-MIA-19E9, CHG1-M-MIA-9C10, CHG1-M-MIA-6E4, CHG1-M-MIA-20C6, CHG1-M-MIA-12A10, CHG1-M-MIA-10F3, and FIG. 1B for antibodies, CHG1-M-MIA-18E8, CHG1-M-MIA-15F9, CHG1-M-MIA-10A7). […] EC50 values are shown in Table C in μg/ml (calculated using a 4-parameter logistic fit).

[6] = biological target: T5, MICA*007 expressed at the cell surface (human, UniProt Q29983 24-297); test: as above
T5 construct: also called C1R-MICA*007; C1R-MICA*07
T5 chain: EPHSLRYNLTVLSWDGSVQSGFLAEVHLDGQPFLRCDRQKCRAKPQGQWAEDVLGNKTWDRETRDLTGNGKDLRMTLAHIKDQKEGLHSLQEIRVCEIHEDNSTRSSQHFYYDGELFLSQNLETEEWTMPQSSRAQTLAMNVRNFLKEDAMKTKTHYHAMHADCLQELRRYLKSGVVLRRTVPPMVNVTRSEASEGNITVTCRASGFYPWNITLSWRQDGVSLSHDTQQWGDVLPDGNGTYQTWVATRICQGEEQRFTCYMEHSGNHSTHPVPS
Description: as §2, §3, §4

[7] = biological target: T6, MICA*004 expressed at the cell surface (human, UniProt Q29983 24-297); test: as above
T6 construct: also called C1R-MICA*004; C1R-MICA*04
T6 chain: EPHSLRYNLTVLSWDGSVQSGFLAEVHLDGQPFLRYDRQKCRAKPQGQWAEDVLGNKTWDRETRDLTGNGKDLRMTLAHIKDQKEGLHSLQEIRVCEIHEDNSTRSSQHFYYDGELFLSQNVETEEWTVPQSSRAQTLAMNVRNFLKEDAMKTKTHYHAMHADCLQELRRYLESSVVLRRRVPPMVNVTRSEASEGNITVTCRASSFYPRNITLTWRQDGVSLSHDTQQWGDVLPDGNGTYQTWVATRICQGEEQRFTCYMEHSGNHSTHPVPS
Description: as §2, §3, §4

[8] = biological target: T7, MICA*008 expressed at the cell surface (human, UniProt Q29983 24-297); test: as above
T7 construct: also called C1R-MICA*008; C1R-MICA*08
T7 chain: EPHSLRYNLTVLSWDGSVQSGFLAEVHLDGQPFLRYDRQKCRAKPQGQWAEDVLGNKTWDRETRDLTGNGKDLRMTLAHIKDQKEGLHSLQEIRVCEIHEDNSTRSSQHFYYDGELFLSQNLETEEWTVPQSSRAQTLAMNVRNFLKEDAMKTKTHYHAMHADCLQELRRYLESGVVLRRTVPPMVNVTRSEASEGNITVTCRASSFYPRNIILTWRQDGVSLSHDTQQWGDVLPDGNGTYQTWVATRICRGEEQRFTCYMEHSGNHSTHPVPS
Description: as §2, §3, §4

MICA*001-BirA = biological target: T8, MICA*001-BirA (human, UniProt Q29983 24-297); test: SPR single cycle kinetics, monovalent mean KD at pH 7.4, antibody captured on Protein-G chip, MICA-BirA injected
T8 construct: also called MICA-BirA; MICA*01-BirA; not shown: BirA tag
T8 sequence: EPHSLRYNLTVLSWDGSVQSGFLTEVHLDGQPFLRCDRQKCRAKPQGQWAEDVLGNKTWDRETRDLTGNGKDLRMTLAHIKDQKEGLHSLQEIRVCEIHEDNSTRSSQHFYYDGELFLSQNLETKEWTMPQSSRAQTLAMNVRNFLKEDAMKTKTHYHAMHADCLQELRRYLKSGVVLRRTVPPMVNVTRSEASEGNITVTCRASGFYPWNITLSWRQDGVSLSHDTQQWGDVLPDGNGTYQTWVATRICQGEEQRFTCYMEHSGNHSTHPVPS
Description: For monovalent affinity measurement, chimeric anti-MICA antibodies were captured onto a Protein-G chip.
Affinities were determined using single cycle kinetics (SCK). SCK cycles were as follows: Successive 120s injections at 30 μl/min of 5 serial dilutions (0.01 to 100 nM) of MICA-His or MICA-BirA in ascending order (or of buffer for the blank injections to be subtracted during the analysis). After the last concentration is injected, complex is left to dissociate for 600s before regeneration by a 10s injection of appropriate regeneration buffer at 40 μl/min. After the regeneration, chip is left to stabilise for 60s in running buffer. Curves are fitted using Biacore T100 Evaluation software.

[9] = biological target: T9, MICB-Fc (R&D Systems 1599-MB) (human, UniProt Q29980 23-298, limits assumed); test: SPR, antibody at 10 µg/ml injected over immobilized MICB-Fc
T9 construct: Bought; also called human MICB-Fc; not shown: Fc of the bought fusion protein
T9 sequence: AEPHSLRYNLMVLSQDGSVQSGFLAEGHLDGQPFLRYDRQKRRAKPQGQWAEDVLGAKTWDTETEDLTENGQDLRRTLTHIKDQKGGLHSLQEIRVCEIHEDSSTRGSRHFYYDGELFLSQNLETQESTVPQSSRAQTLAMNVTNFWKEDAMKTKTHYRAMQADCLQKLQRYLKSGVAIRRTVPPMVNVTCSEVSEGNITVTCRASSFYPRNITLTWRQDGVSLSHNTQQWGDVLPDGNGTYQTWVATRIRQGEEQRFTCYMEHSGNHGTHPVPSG
Description: as §1

B1: CHG1-M-MIA-9C10 (antibody, human IgG1, V domains shown)
VH: QVQLQQPGAELVRPGTSVNLSCKASGYSFTRYWMNWVKQRPGQGLEWIGMIHPSDSETRLNQKFKDKATLTVDKSSSTAYMQLSSPTSEDSAVYYCGYGNFFYVMDYWGQGTSVTVSS
VL: DILLTQSPAILSVSPGERVSFSCRASQSIGTSIHWYQQRTNGSPRLLIKFASESISGIPSRFSGSGSGTDFTLNINSVESEDIADYYCQQSNFWPFTFGSGTKLEVK
notes: also called chimeric anti-MICA 9C10
B1 was tested, and the binding result [1] was “no binding (tested: 10 µg/ml)”, the binding result [2] was “no binding (tested: 10 µg/ml)” and the “CDC: EC50 of the increase in dead (7-AAD positive) Raji-MICA*01 cells with human complement” value [3] was 2 µg/mL. The binding result [4] was “no binding (tested: 10 µg/ml)”, the EC50 [5] was 2.09 µg/mL and the EC50 [6] was 2.83 µg/mL. The EC50 [7] was 0.13 µg/mL and the EC50 [8] was 0.13 µg/mL.

B2: CHG1-M-MIA-18E8 (antibody, human IgG1, V domains shown)
VH: DVQLQESGPDLVNPSQSLSLICTVTGYSITSDYSWHWIRQFPGNKLEWMGNIHYSGRINYNPSLRSRISITRDTSKNQFFLQLISVTTEDTATYYCATRRTFGNFEDYWGQGTTLTVSS
VL: QIVLSQSPATLSVSPGEKVTMTCRSSSSVNYMHWYQQKPGSSPKPWIYATSTLASGVPARFSGSGSGTSYSLTISRVEAEDAATYYCQQWSSNPLTFGAGTKLELK
notes: the VH entry ends with ASTK
For B2, the Kd (MICA*001-BirA) was 54 nM, the EC50 [5] was 0.5 µg/mL and the EC50 [6] was 0.3 µg/mL. For the same binder, the EC50 [7] was 0.15 µg/mL, the EC50 [8] was 0.24 µg/mL and the binding result [9] was “binds”.

B3: CHG1-M-MIA-10F3 (antibody, human IgG1, V domains shown)
VH: QVQLQQSAAELARPGASVKMSCKASGYTFTSYTMHWVKQRPGQGLEWIGYINPSSGYTEYNQKFKDKTTLTVDKSSTTSYMQLSSLTSDNSAVYYCARGGDWDVDWFVYWGQGTLVTVSA
VL: QIVLTQSPAIMSASPGEKVTITCSASSSISYMHWFQQKPGTSPKLWIYSTSKLASGVPARFSGSGSGTSHSLTISRMEAEDAATYYCQHRSTYPFTFGSGTKLEIK
notes: the VH entry ends with ASTK
B3 gave a Kd (MICA*001-BirA) of 8.3 nM, an EC50 [5] of 0.47 µg/mL and an EC50 [6] of 0.94 µg/mL. The EC50 [7] was 0.17 µg/mL, the EC50 [8] was 0.26 µg/mL and the binding result [9] was “binds”.

B4: CHG1-M-MIA-15F9 (antibody, human IgG1, V domains shown)
VH: DVQLQESGPDLVKPSQSLSLTCTVTGYSITSGYSWHWIRQFPGNKLEWMGFIHYSGSTDYNPSLKSRISLTRDTSKNQFFLQLNSVSTEDTATYYCAKDYGHWYFDVWGAGTTVTVSS
VL: SIVMTQTPKFLLVSAGDRVTITCKASQSVSYDVAWYQQKPGQSPKLLIFYASNRYTGVPARFTGSGYGTDFTFTISTVQAEDLAVYFCQQDYSSLTFGAGTKLELK
notes: the VH entry ends with ASTK
For B4, the Kd (MICA*001-BirA) was 61 nM, the EC50 [5] was 0.68 µg/mL and the EC50 [6] was 1.81 µg/mL. For the same binder, the EC50 [7] was 0.43 µg/mL, the EC50 [8] was 0.79 µg/mL and the binding result [9] was “binds”.

B5: CHG1-M-MIA-19E9 (antibody, human IgG1, V domains shown)
VH: DVQLQESGPGLVKPSQSLSLTCTVTGYSITSDYAWNWIRQFPGNKLEWMGFVSYSGTTKYNPSLKSRISITRDTSENQFFLQLNSVTSEDTATYYCARGYGFDYWGQGTTLTVSS
VL: EIVLTQSPTTMAASPGEKITITCSATSSISSIYFHWYQQRPGFSPKLLIYRTSNLASGVPARFSGSGSGTSYSLTIGTMEAEDVATYYCQQGTTIPFTFGSGTKLEIK
notes: also called chimeric anti-MICA 19E9
B5: no binding (tested: 10 µg/ml) [1]; no binding (tested: 10 µg/ml) [2]; no binding (tested: 10 µg/ml) [4].

— patent US20200299380A1 (published 2020)
